For the test, the target named is ovine PrP (VRQ allele), PrP^Sc aggregates from brains of prion-infected tg338 mice (sheep) (UniProt P23907).

Regarding “ovine PrP (VRQ allele), PrP^Sc aggregates from brains of prion-infected tg338 mice (from UniProt P23907 25-233) (natural protein)”, the stoichiometry N was 12 to 30 PrP monomers.
